{"source": "patent US20170029474A1", "about": "(OSAKA UNIVERSITY, published 2017)", "key": {"CRM197 [1]": {"target": "T1, CRM197 (Corynebacterium diphtheriae, UniProt P00587 26-560)", "assay": "SPR, Biacore T200, His-tagged HB-EGF captured on NTA chip"}, "CRM197 [2]": {"target": "T1, CRM197", "assay": "SPR, Biacore T200, His-tagged HB-EGF captured on NTA chip", "remark": "listed apart in the source"}}, "note": "Read-outs that look alike come from different tables or passages of the source."}
{"binder": "C-terminal His-tagged HB-EGF lacking the heparin-binding domain (ligand, Captured on a Ni2+ NTA sensor chip for Biacore; also called C-terminal His-tagged recombinant HB-EGF; Δ••-EGF-His) DLQEADLDLLRVTLSSKPQALATPNKEEHGDPCLRKYKDFCIHGECKYVKELRAPSCICHPGYHGERCHGLSLP", "values": [{"measurement": "Ka", "setting": "CRM197 [1]", "result": "9.22e+08", "unit": "M⁻¹"}, {"measurement": "Ka", "setting": "CRM197 [2]", "result": "9.8e+08", "unit": "M⁻¹"}]}
